Measured values from US20150111836A1, “CELLULAR APOBEC3 PROTEINS AND MODULATORS THEREOF FOR REGULATING DNA REPAIR PROCESSES AND TREATING PROLIFERATIVE DISEASES” (priority 2012, published 2015).
Positions count from the first letter of the chain named. In names and notes the source's numbering stands.

Key:
[1] = tested on: SC or SU oligonucleotides (80 nt); test: Electrophoretic mobility shift assay (EMSA) of ssDNA binding; details: biotinylated SC oligonucleotides (80 nt), FIG. 3B
Procedure: SC (10 pmol) was 3′ labeled with dATP-biotin using 10 u terminal deoxynucleotidyl transferase (NEB) in NEBuffer 4 (NEB) supplemented with 0.25 mM CoCl2 and 10 μM dATP-biotin (Invitrogen). Labeled oligos (200 fmol) were incubated with A3G or RPA for 8 or 30 mM, respectively, at room temperature, in EMSA buffer: 50 mM Tris (pH 7.0), 50 mM NaCl, 0.1 mg/mL BSA and 10% glycerol, in 10 μL, reaction volume. Samples were resolved by 6% native PAGE, transferred to a Hybond N nylon membrane (GE Healthcare) using a semi-dry transfer apparatus (Biorad) and UV-crosslinked (302 nm) for 15 min. Following blocking with Casein blocking buffer (Sigma), the membrane was treated with horseradish peroxidase conjugated sterptavidine (Jackson) for 20 mM at RT, washed 6 times with TBS (pH 7.4) and visualized by enhanced chemiluminescence. […] Following incubation with A3G, samples were resolved by PAGE, stained with SYBR Gold (Molecular Probes) and visualized by UV light (302 nm).

[2] = tested on: HRind cells (U2OS-DR-GFP); test: DR-GFP HR reporter assay of ISceI-induced DSB repair; assay type: cell-based; details: expression plasmid transfected, 52 hours after ISceI induction, FIG. 11B
Procedure: Repair of a unique ISceI-induced DSB by HR was assessed in U2OS-DR-GFP cells stably transfected with the Cherry-Sce-GR plasmid (HRind cells) as described in Shahar OD et al.. Cherry-ZScel-GR rapidly translocates from the cytoplasm into the nucleus on binding to triamcinolone acetonide (TA). The DR-GFP cassette enables reconstitution of GFP after ZScel-dependent HR between 2 mutated GFP sequences. Transfection of A3G or A3GW285A expression plasmids was performed in 24-well plates with GenJet (Signa-gen). Forty hours after transfection, IScel-directed DSB was induced with 10^7M TA (Sigma-Aldrich). GFP^+ cells were sorted 52 hours later by flow cytometry using FACScan as described in Shahar OD [10].

[3] = tested on: primer with 3′-terminal CC; test: Terminal cytidine deamination, DNA polymerase primer extension / PCR assay; assay type: biochemical; details: FIG. 4A
Procedure: A3G deaminates the extreme base of the ssDNA 3′-terminus and tethers two ssDNA termini To determine whether A3G interacts with the terminal base of the ssDNA, the inventors tested terminal cytidine deamination by A3G. A primer with 3′-terminal CC was incubated with A3G and was then used for extension and PCR amplification of a target sequence. It was previously shown that A3G W285 residue contributes to formation of a hydrophobic cavity and is essential for catalytic activity. […] A cleavage resistant polynucleotide deaminase substrate, comprising an internal cytidine, was incubated with either A3G or A3G W285A. Upon deamination, the internal uridine-containing polynucleotide was susceptible to restriction, and yielded a fragment which was apparent in the PAGE analysis of the cleaved deamination products shown in FIG. 3C (bottom).

[4] = tested on: ss-deoxyoligonucleotide substrate; test: Cytidine deaminase activity of purified wild-type and mutant A3G; assay type: biochemical
Procedure: Deaminase activity of purified enzyme and virion-associated A3G protein was examined as previously described. Briefly, A3G deamination reactions were performed in a total volume of 10 μl in 25 mM Tris, pH 7.0, and 0.01-1 fmol single-stranded (ss) deoxyoligonucleotide substrate at 37° C. The reaction was terminated by heating to 95° C. for 5 min. One μl of the reaction mixture was used for PCR amplification performed in 20 μl buffer S, using the following program: 1 cycle at 95° C. for 3 min, followed by 30 cycles of annealing at 61° C. for 30 s and denaturing at 94° C. for 30 s. Aliquots of the PCR products (10 μl) were incubated with Eco147I restriction enzyme for 1 h at 37° C. Completion of the restriction reaction was verified by using positive-control substrate containing CCU instead of CCC. Restriction-reaction products were loaded onto 14% gels and separated by PAGE. Gels were stained with SYBR gold nucleic acid stain diluted 1:10,000 in 0.5× Tris-Borate-EDTA buffer (TBE, pH 7.8), visualized by UV light (312 nm), captured by an Olympus C-5050 charge-coupled device (CCD) camera and analyzed by optical density (OD) scan using the TINA2.0 densitometry software. Assessment of A3G entrapped in virions was carried out with concentrated viruses stocks of 3-5 μg of p24/μl) suspended in PBS containing Triton X-100 at final concentration of 0.1% (vv) and 50 μg/ml RNase A (Sigma-Aldrich). […]

[5] = tested on: SupT11 cells; test: γ-H2AX foci in SupT11 cells stably expressing A3G variants after IR; assay type: cell-based, human; details: 24 hours after IR (4 Gy), FIG. 9B
Procedure: Cells were irradiated by exposure to a ^60Co source producing 1 Gy sec^−1 γ-radiation, or mock-irradiated. Following incubation at 37° C., cells were fixed, attached to glass slides by cytospin, permeabilized with detergent and blocked with 10% normal goat serum. Cells were then incubated with A3G-specific rabbit polyclonal antibody, γ-H2AX-specific monoclonal antibody, or RPA32-specific monoclonal antibody, followed by incubation with goat anti-rabbit Cy-5-conjugated antibody, goat anti-mouse Cy-2-conjugated antibody and DAPI. Slides were mounted and examined by Zeiss LSM 710 confocal microscope. Data were collected sequentially using a ×63 objective with 7-fold averaging at a resolution of […], Z-sections were obtained using an optical slice of less than 1 μm. Data were analyzed with the Zen 2009.
To assess whether A3G cytidine deaminase activity is required for DSB repair, the inventors examined whether IR-Induced 7412AX focus formation occurred differentially in SupTH cells stably expressing A3G, an E259Q catalytic mutant (as denoted by SEQ ID NO. 90) or empty vector (EV).

[6] = tested on: DNA1 and DNA2 ss-oligonucleotides; test: Terminal ssDNA tethering by DNA polymerase terminal extension; assay type: biochemical; details: DNA1+2, FIG. 4D
Procedure: DNA1 and DNA2 were annealed to an equimolar amount of a short oligonucleotide (30 nt) complementary to the 5′-termius by heating to 95° C. followed by slow cooling to RT. DNA-polymerase extension reactions were performed in a total volume of 7 μl and included 100 fmol annealed oligonucleotides, 50 μM dNTPs (dCTP, dGTP, dTTP and dATP-biotin (Invitrogen)), NEBuffer 1 (final dilution ×0.35 (NEB)), 1 mg/ml BSA, 100 fmol A3G or A3G W285A, and 5 u Klenow Fragment (3′→5′ exo(−), NEB). Reactions were incubated for 30 min at 37° C. and terminated by heating to 95° C. for 5 min and adding 5 μl formamide. Samples were then heated to 80° C. prior to loading on pre-heated 10% acrylamide gel containing 6M urea. Gels were washed in Tris-Boric acid-EDTA buffer (ph 8.3) for 15 min and transferred to nylon membranes as described in the EMSA protocol below.
To further investigate A3G-mediated terminal ssDNA tethering, the inventors developed a DNA polymerase extension assay depicted in FIG. 4C. The 5′-termini of two ss-oligonucleotides (DNA1 and DNA2, 80 nt) were annealed to complementary oligonucleotides (30 nt), leaving 3′ ssDNA overhangs. […] As expected, no extension products were detected in the presence or absence of wild-type or mutant A3G (not shown). […]

B1: A3G W285A: A3G W285A catalytic mutant, deaminase-dead control that binds ssDNA (protein)
chain: MKPHFRNTVERMYRDTFSYNFYNRPILSRRNTVWLCYEVKTKGPSRPPLDAKIFRGQVYSELKYHPEMRFFHWFSKWRKLHRDQEYEVTWYISWSPCTKCTRDMATFLAEDPKVTLTIFVARLYYFWDPDYQEALRSLCQKRDGPRATMKIMNYDEFQHCWSKFVYSQRELFEPWNNLPKYYILLHIMLGEILRHSMDPPTFTFNFNNEPWVRGRHETYLCYEVERMHNDTWVLLNQRRGFLCNQAPHKHGFLEGRHAELCFLDVIPFWKLDLDQDYRVTCFTSASPCFSCAQEMAKFISKNKHVSLCIFTARIYDDQGRCQEGLRTLAEAGAKISIMTYSEFKHCWDTFVDHQGCPFQPWDGLDEHSQDLSGRLRAILQNQEN
modifications: A3G W285A mutant
ssDNA binding properties [1]: retained wild-type ssDNA binding properties
reduction of HR [2]: 6.2%
PCR amplification after incubation of the primer [3]: normal PCR amplification
catalytic activity (cytidine deamination) ([4]; purified protein, FIG. 3C): catalytically inactive

B2: A3G: wild-type human APOBEC3G, purified with C-terminal His6 tag from 293T cells or expressed in cells (protein, listed as Homo sapiens)
chain: B1 chain with A285W
modifications: C-terminal His6 tag
notes: wild-type human APOBEC3G, purified with C-terminal His6 tag from 293T cells or expressed in cells
average DSB load (γ-H2AX focus formation), lower than EV control cells [5]: approximately 2 fold
extension efficiency relative to Klenow fragment alone [6]: approximately 9 fold
reduction of HR [2]: 30.2%
inhibition of the PCR reaction after incubation of the primer [3]: ~90%
dC in the oligonucleotide substrate deaminated ([4]; purified recombinant A3G alone, FIG. 14A): 20%

B3: A3G E259Q: A3G E259Q catalytic mutant stably expressed in SupT11 cells (protein)
chain: B1 chain with E259Q, A285W
modifications: A3G E259Q mutant
notes: A3G E259Q catalytic mutant stably expressed in SupT11 cells
enhancement of DSB repair [5]: enhanced repair was not observed
